Experimental findings from US20260049138A1 (Chugai, published 2026) are described below.

In this experiment the target is T1, CD3ε homodimer protein (human, UniProt P07766 23-126, limits assumed).
T1 construct: also called CD3 (CD3ε)
Description: SPR Biacore T200, CD3ε homodimer on chip.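 Also: Light-chain single-residue variant antibodies injected over amine-coupled CD3ε homodimer on a CM4 chip at 25 °C, bound amount divided by that of the GLS3000-containing antibody.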 Background: SPR reads the build-up and loss of mass on a sensor chip optically.

Changes are numbered by the printed parent chain. Names and notes keep the numbering of the source.

T1 sequence (P07766 23-126 limits assumed): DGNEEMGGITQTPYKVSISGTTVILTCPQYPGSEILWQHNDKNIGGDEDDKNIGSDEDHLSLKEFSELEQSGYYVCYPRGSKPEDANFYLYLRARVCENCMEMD

B1: GLS3000 R24E one-arm antibody (antibody, human IgG1, kappa, L234A L235A, N297A, name in Kabat numbering)
heavy: QVQLVESGGGVVQPGRSLRLSCAASGFTFSNAWMHWVRQAPGKGLEWVAQIKAKSNNYATYYAESVKGRFTISRDDSKNSLYLQMNSLKTEDTAVYYCRYVHYGAYYGVDAWGQGTTVTVSSASTKGPSVFPLAPSSKSTSGGTAALGCLVKDYFPEPVTVSWNSGALTSGVHTFPAVLQSSGLYSLSSVVTVPSSSLGTQTYICNVNHKPSNTKVDKKVEPKSCDKTHTCPPCPAPEAAGGPSVFLFPPKPKDTLMISRTPEVTCVVVDVSHEDPEVKFNWYVDGVEVHNAKTKPREEQYASTYRVVSVLTVLHQDWLNGKEYKCKVSNKALPAPIEKTISKAKGQPREPQVYTLPPSRCELTKNQVSLSCAVKGFYPSDIAVEWESNGQPENNYKTTPPVLDSDGSFFLVSKLTVDKSRWQQGNVFSCSVMHEALHNHYTQKSLSLSPDYKDDDDK
chain: EPKSSDKTHTCPPCPAPELLGGPSVFLFPPKPKDTLMISRTPEVTCVVVDVSHEDPEVKFNWYVDGVEVHNAKTKPREEQYNSTYRVVSVLTVLHQDWLNGKEYKCKVSNKALPAPIEKTISKAKGQPREPQVCTLPPSRDELTKNQVSLWCLVKGFYPSDIAVEWESNGQPENNYKTTPPVLDSDGSFFLYSKLTVDKSRWQQGNVFSCSVMHEALHNRYTQKSLSLSP
light: DIVMTQSPLSLPVTPGEPASISCESSQSLVHSNRNTYLHWYQQKPGQAPRLLIYKVSNRFSGVPDRFSGSGSGTDFTLKISRVEAEDVGVYYCGQGTQVPYTFGQGTKLEIKRTVAAPSVFIFPPSDEQLKSGTASVVCLLNNFYPREAKVQWKVDNALQSGNSQESVTEQDSKDSTYSLSSTLTLSKADYEKHKVYACEVTHQGLSSPVTKSFNRGEC
In the case of B1, the “ratio of amount bound vs unaltered GLS3000” value (“ratio of amount bound” for short) came out at 0.83.

B2: GLS3000 R29V one-arm antibody (antibody, human IgG1, kappa, L234A L235A, N297A, name in Kabat numbering)
heavy: B1 heavy
chain: B1 chain
light: B1 light with E24R, R34V
For the molecule B2, the “ratio of amount bound” value amounted to 0.34.

B3: GLS3000 R54A one-arm antibody (antibody, human IgG1, kappa, L234A L235A, N297A, name in Kabat numbering)
heavy: B1 heavy
chain: B1 chain
light: B1 light with E24R, R59A
On to B3, for which the “ratio of amount bound” value turned out to be 0.69.

B4: GLS3000 R24S one-arm antibody (antibody, human IgG1, kappa, L234A L235A, N297A, name in Kabat numbering)
heavy: B1 heavy
chain: B1 chain
light: B1 light with E24S
On to B4, for which the “ratio of amount bound” value stood at 0.89.

B5: GLS3000 R29L one-arm antibody (antibody, human IgG1, kappa, L234A L235A, N297A, name in Kabat numbering)
heavy: B1 heavy
chain: B1 chain
light: B1 light with E24R, R34L
B5: the “ratio of amount bound” value is 0.56.

B6: GLS3000 S25L one-arm antibody (antibody, human IgG1, kappa, L234A L235A, N297A, name in Kabat numbering)
heavy: B1 heavy
chain: B1 chain
light: B1 light with E24R, S25L
Take B6: the “ratio of amount bound” value was 0.24.

B7: GLS3000 R24P one-arm antibody (antibody, human IgG1, kappa, L234A L235A, N297A, name in Kabat numbering)
heavy: B1 heavy
chain: B1 chain
light: B1 light with E24P
With B7, the “ratio of amount bound” value amounted to 0.7.

B8: GLS3000 R29T one-arm antibody (antibody, human IgG1, kappa, L234A L235A, N297A, name in Kabat numbering)
heavy: B1 heavy
chain: B1 chain
light: B1 light with E24R, R34T
Take B8: the “ratio of amount bound” value was determined as 0.63.

B9: GLS3000 R29G one-arm antibody (antibody, human IgG1, kappa, L234A L235A, N297A, name in Kabat numbering)
heavy: B1 heavy
chain: B1 chain
light: B1 light with E24R, R34G
B9: the “ratio of amount bound” value turned out to be 0.67.

B10: GLS3000 S25A one-arm antibody (antibody, human IgG1, kappa, L234A L235A, N297A, name in Kabat numbering)
heavy: B1 heavy
chain: B1 chain
light: B1 light with E24R, S25A
For the molecule B10, the “ratio of amount bound” value came to 0.92.

B11: GLS3000 R54P one-arm antibody (antibody, human IgG1, kappa, L234A L235A, N297A, name in Kabat numbering)
heavy: B1 heavy
chain: B1 chain
light: B1 light with E24R, R59P
With B11, the “ratio of amount bound” value stood at 0.84.

B12: GLS3000 R29A one-arm antibody (antibody, human IgG1, kappa, L234A L235A, N297A, name in Kabat numbering)
heavy: B1 heavy
chain: B1 chain
light: B1 light with E24R, R34A
Consider B12, for which the “ratio of amount bound” value was 0.63.

B13: GLS3000 R24T one-arm antibody (antibody, human IgG1, kappa, L234A L235A, N297A, name in Kabat numbering)
heavy: B1 heavy
chain: B1 chain
light: B1 light with E24T
In the case of B13, the “ratio of amount bound” value stood at 0.88.

B14: GLS3000 R29Y one-arm antibody (antibody, human IgG1, kappa, L234A L235A, N297A, name in Kabat numbering)
heavy: B1 heavy
chain: B1 chain
light: B1 light with E24R, R34Y
Consider B14, for which the “ratio of amount bound” value turned out to be 0.69.

B15: GLS3000 R54S one-arm antibody (antibody, human IgG1, kappa, L234A L235A, N297A, name in Kabat numbering)
heavy: B1 heavy
chain: B1 chain
light: B1 light with E24R, R59S
B15: the “ratio of amount bound” value turned out to be 0.79.

B16: GLS3000 R29D one-arm antibody (antibody, human IgG1, kappa, L234A L235A, N297A, name in Kabat numbering)
heavy: B1 heavy
chain: B1 chain
light: B1 light with E24R, R34D
Consider B16, for which the “ratio of amount bound” value was found to be 0.41.

B17: GLS3000 R29P one-arm antibody (antibody, human IgG1, kappa, L234A L235A, N297A, name in Kabat numbering)
heavy: B1 heavy
chain: B1 chain
light: B1 light with E24R, R34P
For the molecule B17, the “ratio of amount bound” value was determined as 0.31.

B18: GLS3000 R77S one-arm antibody (antibody, human IgG1, kappa, L234A L235A, N297A, name in Kabat numbering)
heavy: B1 heavy
chain: B1 chain
light: B1 light with E24R, R82S
On to B18, for which the “ratio of amount bound” value was 0.92.

B19: GLS3000 R54Q one-arm antibody (antibody, human IgG1, kappa, L234A L235A, N297A, name in Kabat numbering)
heavy: B1 heavy
chain: B1 chain
light: B1 light with E24R, R59Q
As for B19, the “ratio of amount bound” value came to 0.68.

B20: GLS3000 R54D one-arm antibody (antibody, human IgG1, kappa, L234A L235A, N297A, name in Kabat numbering)
heavy: B1 heavy
chain: B1 chain
light: B1 light with E24R, R59D
In the case of B20, the “ratio of amount bound” value is 0.36.

B21: GLS3000 R24Q one-arm antibody (antibody, human IgG1, kappa, L234A L235A, N297A, name in Kabat numbering)
heavy: B1 heavy
chain: B1 chain
light: B1 light with E24Q
B21: the “ratio of amount bound” value came out at 0.9.

B22: GLS3000 S25E one-arm antibody (antibody, human IgG1, kappa, L234A L235A, N297A, name in Kabat numbering)
heavy: B1 heavy
chain: B1 chain
light: B1 light with E24R, S25E
Consider B22, for which the “ratio of amount bound” value worked out at 0.21.

B23: GLS3000 R29I one-arm antibody (antibody, human IgG1, kappa, L234A L235A, N297A, name in Kabat numbering)
heavy: B1 heavy
chain: B1 chain
light: B1 light with E24R, R34I
For B23, the “ratio of amount bound” value was 0.37.

B24: GLS3000 R24Y one-arm antibody (antibody, human IgG1, kappa, L234A L235A, N297A, name in Kabat numbering)
heavy: B1 heavy
chain: B1 chain
light: B1 light with E24Y
As for B24, the “ratio of amount bound” value came to 0.87.

B25: GLS3000 R24G one-arm antibody (antibody, human IgG1, kappa, L234A L235A, N297A, name in Kabat numbering)
heavy: B1 heavy
chain: B1 chain
light: B1 light with E24G
For B25, the “ratio of amount bound” value turned out to be 0.89.

B26: GLS3000 R29S one-arm antibody (antibody, human IgG1, kappa, L234A L235A, N297A, name in Kabat numbering)
heavy: B1 heavy
chain: B1 chain
light: B1 light with E24R, R34S
With B26, the “ratio of amount bound” value turned out to be 0.68.

B27: GLS3000 R54T one-arm antibody (antibody, human IgG1, kappa, L234A L235A, N297A, name in Kabat numbering)
heavy: B1 heavy
chain: B1 chain
light: B1 light with E24R, R59T
Turning to B27, the “ratio of amount bound” value worked out at 0.65.

B28: GLS3000 R54W one-arm antibody (antibody, human IgG1, kappa, L234A L235A, N297A, name in Kabat numbering)
heavy: B1 heavy
chain: B1 chain
light: B1 light with E24R, R59W
As for B28, the “ratio of amount bound” value was 0.78.

B29: GLS3000 R54G one-arm antibody (antibody, human IgG1, kappa, L234A L235A, N297A, name in Kabat numbering)
heavy: B1 heavy
chain: B1 chain
light: B1 light with E24R, R59G
For the molecule B29, the “ratio of amount bound” value was determined as 0.67.

B30: GLS3000 R54E one-arm antibody (antibody, human IgG1, kappa, L234A L235A, N297A, name in Kabat numbering)
heavy: B1 heavy
chain: B1 chain
light: B1 light with E24R, R59E
Take B30: the “ratio of amount bound” value turned out to be 0.58.

B31: GLS3000 S25D one-arm antibody (antibody, human IgG1, kappa, L234A L235A, N297A, name in Kabat numbering)
heavy: B1 heavy
chain: B1 chain
light: B1 light with E24R, S25D
Turning to B31, the “ratio of amount bound” value amounted to 0.18.

B32: GLS3000 S25I one-arm antibody (antibody, human IgG1, kappa, L234A L235A, N297A, name in Kabat numbering)
heavy: B1 heavy
chain: B1 chain
light: B1 light with E24R, S25I
In the case of B32, the “ratio of amount bound” value amounted to 0.53.
